From PMC3789827, “A GDF5 Point Mutation Strikes Twice - Causing BDA1 and SYNS2” (PLoS Genetics, 2013)
Where a chain is given by its changes, count along the chain named. In names and notes the source's numbering stands.

B1: recombinant human GDF5 (Growth and Differentiation Factor 5), wild type (ligand, UniProt P43026 28-501, looked up)
chain: APLATRQGKRPSKNLKARCSRKALHVNFKDMGWDDWIIAPLEYEAFHCEGLCEFPLRSHLEPTNHAVIQTLMNSMDPESTPPTCCVPTRLSPISILFIDSANNVVYKQYEDMVVESCGCR
notes: Growth and Differentiation Factor 5 (GDF5), human, recombinant protein; also called rhGDF5; GDF5^wt; source: recombinant, provided by Biopharm GmbH, dissolved in 10 mM HCl
B2: BMP receptor type IB (BMPR1B) ectodomain (domain or fragment, UniProt O00238 14-126, looked up)
chain: KKEDGESTAPTPRPKVLRCKCHHHCPEDSVNNICSTDGYCFTMIEEDDSGLPVVTSGCLGLEGSDFQCRDTPIPHQRRSIECCTERNECNKDLHPTLPPLKNRDFVDGPIHHR
notes: BMP receptor type IB (BMPR1B), ectodomain
B3: recombinant human GDF5 variant W414R (ligand, UniProt P43026 28-501, looked up)
chain: B1 chain with W33R
notes: Growth and Differentiation Factor 5 (GDF5), human, recombinant protein with the patient mutation p.W414R; The mutation was found in a family with SYNS2 and BDA1 (c.T1240C); also called rhGDF5^W414R; GDF5^W414R; source: recombinant, provided by Biopharm GmbH, dissolved in 10 mM HCl

Assays:
Test in all cases: SPR; BIA2000 system (Biacore); NOG and ectodomains of BMPR1A and BMPR1B immobilised, GDF5 proteins as analyte; apparent KD; mean of two experiments with at least six analyte concentrations
Details in all cases: both partners purified
NOGGIN (NOG) = biological target: T1, NOGGIN (NOG) (UniProt Q13253 28-232)
T1 construct: NOGGIN (NOG), BMP antagonist
T1 sequence (looked up): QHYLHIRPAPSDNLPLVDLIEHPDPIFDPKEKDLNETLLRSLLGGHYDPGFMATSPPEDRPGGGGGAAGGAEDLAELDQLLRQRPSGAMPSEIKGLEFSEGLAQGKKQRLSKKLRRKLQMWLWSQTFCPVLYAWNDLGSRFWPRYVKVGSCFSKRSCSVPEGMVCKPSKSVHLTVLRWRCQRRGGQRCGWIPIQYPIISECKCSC

[1] = biological target: B3
[2] = biological target: T2, BMP receptor type IA (BMPR1A) ectodomain (UniProt P36894 24-152)
T2 construct: BMP receptor type IA (BMPR1A), ectodomain
T2 sequence (P36894 24-152): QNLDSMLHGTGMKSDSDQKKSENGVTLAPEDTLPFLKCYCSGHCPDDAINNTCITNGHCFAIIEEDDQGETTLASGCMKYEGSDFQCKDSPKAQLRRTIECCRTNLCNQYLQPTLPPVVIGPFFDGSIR

B1
Kd (NOGGIN (NOG)): 2 nM

B2
Kd [1]: 3.3 nM

B3
Kd [2]: 124 nM | Kd (NOGGIN (NOG)): 25.5 nM
